One experiment relates to MKN45 cells. The experiment is described as follows: Payload sensitivity of MKN45 cells. Format: cell-based, human. Here is the method: At Day 0, cells were harvested with 0.25% trypsin-EDTA, plated at 5,000 cells/well in 96-well plates (655090, Greiner), and incubated at 37° C., 5% CO2 overnight. At Day 1, payload compounds were added (5× dilution) into plates. Cell and compound mixtures were incubated at 37° C., 5% CO2 for 6 days. Survival cell signaling was collected at Day 6 with 100 μL of detection reagent (G7573, Promega®); signal was read by Tecan Spark®. Data were analyzed by GraphPad Prism 9.0.0. All killing concentrations were duplicated or triplicated (Table 21 and FIG. 16). “SABC” refers to specific antibody binding capacity.

The target in experiment [1] is T1, chimeric construct (CHIM) (human).
T1 construct: CEACAM6 AA 1-273 joined to the membrane-peripheral region containing domain B3 of CEA (AA 596-687), C-terminal 6xHis; also called chimeric CEA
T1 chain: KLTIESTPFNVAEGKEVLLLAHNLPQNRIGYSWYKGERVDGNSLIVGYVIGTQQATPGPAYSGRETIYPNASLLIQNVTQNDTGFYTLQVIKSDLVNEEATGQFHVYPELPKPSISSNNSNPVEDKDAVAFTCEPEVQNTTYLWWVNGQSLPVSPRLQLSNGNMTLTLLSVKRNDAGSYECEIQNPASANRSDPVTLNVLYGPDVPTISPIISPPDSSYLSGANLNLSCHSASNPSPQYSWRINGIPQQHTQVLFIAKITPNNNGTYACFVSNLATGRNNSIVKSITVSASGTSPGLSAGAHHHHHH
The experiment is described as follows: SPR (BIAcore T-200); antibody captured on anti-human IgG chip, CHIM flowed (1.37-333 nM). On the procedure: For this experiment, anti-human IgG (Fc) antibody was immobilized on an activated CM5 biosensor chip (Cat. No. BR100839, GE Life Sciences). Anti-CEA antibodies were flowed over the chip surface and captured by anti-human Fab antibody. […] For flow cytometry, CEA-expressing cells (10′ cells/well) were incubated with various concentrations of purified affinity-matured antibodies, followed by binding with Alexa Fluro-647-labeled anti-hu IgG Fc antibody (Cat. No. 409320, BioLegend, USA). Cell fluorescence was quantified using a flow cytometer (Guava easyCyte™ 8HT, Merck-Millipore, USA). The equilibrium dissociation constant (KD) was calculated as the ratio koff/kₒₙ.

Experiment [2] addresses T2, CHIM (Homo sapiens, UniProt P06731, A174T/A211G/A239V/A261S/A267P/C12H/D173N/E253A/E283V/F203L/F272R/F277P/F63I/H123Q/H61N/H9C/I100T/I112V/I113T/I13V/I230T/I80V/INS244IISP/K155N/K214E/L18V/L245P/L62R/N182G/N204S/N246D/N288K/P266S/P287A/Q16K/Q78L/R139H/R17E/R198M/R224N/R250L/R77S/S228P/S280H/T171V/T206K/T210A/T217I/T247S/T276I/V221A/V273I/V291P/V55A/W11L).
T2 construct: CEACAM6 N-terminal part (fusion partner); 6xHis (C); made in house; host or cells: HEK293-based mammalian cell expression system
T2 sequence (P06731 with tags, fused parts or gaps H9C/W11L/C12H/I13V/Q16K/R17E/L18V/V55A/H61N/L62R/F63I/R77S/Q78L/I80V/I100T/I112V/I113T/H123Q/R139H/K155N/T171V/D173N/A174T/N182G/R198M/F203L/N204S/T206K/T210A/A211G/K214E/T217I/V221A/R224N/S228P/I230T/A239V/INS244IISP/L245P/N246D/T247S/R250L/E253A/A261S/P266S/A267P/F272R/V273I/T276I/F277P/S280H/E283V/P287A/N288K/V291P): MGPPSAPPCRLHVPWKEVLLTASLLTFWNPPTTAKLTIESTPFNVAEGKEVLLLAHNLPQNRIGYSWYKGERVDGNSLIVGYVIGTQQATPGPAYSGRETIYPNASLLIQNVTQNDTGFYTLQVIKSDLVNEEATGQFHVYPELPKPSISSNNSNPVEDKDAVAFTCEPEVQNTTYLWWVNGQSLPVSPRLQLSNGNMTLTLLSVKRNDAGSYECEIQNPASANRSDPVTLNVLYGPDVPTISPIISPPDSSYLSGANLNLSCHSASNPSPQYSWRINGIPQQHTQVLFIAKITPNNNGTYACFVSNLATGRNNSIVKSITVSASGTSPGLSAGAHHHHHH
The experiment is described as follows: SPR affinity comparison of affinity matured humanized BGA7592 variants on CHIM. The class given is binding. Conditions: Table 9, SPR on CHIM. Here is the method:
(§1) Affinity comparison of BGA7592-1F (BGA5366) and other affinity matured clones was made by SPR assay (Table 9) using BIAcore™ T-200 (GE Life Sciences) and flow cytometry (FIG. 7). For this experiment, anti-human IgG (Fc) antibody was immobilized on an activated CM5 biosensor chip (Cat. No. BR100839, GE Life Sciences). Anti-CEA antibodies were flowed over the chip surface and captured by anti-human Fab antibody. Then a serial dilution (1.37 nM to 333 nM) of CHIM was flowed over the chip surface and changes in surface plasmon resonance signals were analyzed to calculate the association rates (kon) and dissociation rates (koff) by using the one-to-one Langmuir binding model (BIA Evaluation Software, GE Life Sciences). For flow cytometry, CEA-expressing cells (10′ cells/well) were incubated with various concentrations of purified affinity-matured antibodies, followed by binding with Alexa Fluro-647-labeled anti-hu IgG Fc antibody (Cat. No. 409320, BioLegend, USA). Cell fluorescence was quantified using a flow cytometer (Guava easyCyte™ 8HT, Merck-Millipore, USA). The equilibrium dissociation constant (KD) was calculated as the ratio koff/kon.

In experiment [3] the target is T3, huCEA surface protein (LOVO cells) (Homo sapiens, UniProt P06731).
T3 construct: host or cells: LOVO
T3 sequence (P06731 35-676): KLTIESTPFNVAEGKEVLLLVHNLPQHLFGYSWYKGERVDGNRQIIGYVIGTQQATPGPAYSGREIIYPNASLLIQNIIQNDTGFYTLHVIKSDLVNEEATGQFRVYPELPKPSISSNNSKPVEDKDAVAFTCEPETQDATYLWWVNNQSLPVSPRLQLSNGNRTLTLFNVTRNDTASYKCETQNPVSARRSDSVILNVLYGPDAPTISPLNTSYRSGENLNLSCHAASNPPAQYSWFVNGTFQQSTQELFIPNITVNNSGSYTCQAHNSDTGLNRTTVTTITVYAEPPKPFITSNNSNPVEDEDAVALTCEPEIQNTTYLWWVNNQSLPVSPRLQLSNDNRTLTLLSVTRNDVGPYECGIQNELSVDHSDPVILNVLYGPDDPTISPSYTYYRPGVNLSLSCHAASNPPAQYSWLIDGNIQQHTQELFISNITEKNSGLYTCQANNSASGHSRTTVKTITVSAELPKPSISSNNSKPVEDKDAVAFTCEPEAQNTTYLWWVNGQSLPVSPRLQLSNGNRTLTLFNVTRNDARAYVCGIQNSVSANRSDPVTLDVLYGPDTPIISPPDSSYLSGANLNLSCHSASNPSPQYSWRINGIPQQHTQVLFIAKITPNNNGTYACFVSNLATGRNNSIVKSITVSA
Nature of the experiment: Flow cytometry binding of affinity matured humanized BGA7592 variants to LOVO cells. On the procedure:
as §1

Experiment [4] concerns the target T1, chimeric construct (CHIM). Nature of the experiment: SPR; binding to CHIM.
In experiment [5] the target is T2, CHIM. The experiment is described as follows: SPR affinity comparison of affinity matured humanized BGA7592 variants on CHIM. Format: binding. Conditions: for Ka / Rmax: Table 11, SPR to CHIM.

Substitutions are numbered along the chain they refer to. Names and notes keep the numbering of the source. Where two headings read alike, the source gives them in different places.

Turning to `COc1cc2cc(c1Cl)N(C)C(=O)C[C@H](OC(=O)[C@H](C)N(C)C(=O)CCC(C)(C)S)[C@]1(C)O[C@H]1[C@H](C)[C@@H]1C[C@@](O)(NC(=O)O1)[C@H](OC)/C=C/C=C(\C)C2` [P1, DM4], the Emax in the experiment on MKN45 cells (MKN45, 6 days) is 97.6. Also, the EC50 in the experiment with MKN45 cells (MKN45, 6 days, read-out: EC50) was determined as 1.16 nM.

In the experiment on MKN45 cells (Homo sapiens, MKN-45, […]), `CC[C@@]1(O)C(=O)OCc2c1cc1n(c2=O)Cc2c-1nc1cc(F)c(C)c3c1c2[C@@H](NC(=O)CO)CC3` [P2, DXD] came in with an EC50 of 2.08 nM and an Emax of 98.1%.

For the molecule `CC[C@@]1(O)C(=O)OCc2c1cc1n(c2=O)Cc2c-1nc1cc(F)c(C)c3c1c2[C@@H](NC(=O)C(C)(C)CO)CC3` [P3, N-((1S,9S)-9-ethyl-5-fluoro-9-hydroxy-4-methyl-10,13-dioxo-2,3,9,10,13,15-hexahydro-1H,12H-benz′[d′]pyrano[3′,4′:6,7]indolizino[1,2-b]quinolin-1-yl)-3-hydroxy-2,2-dimethylpropanamide], the EC50 with MKN45 cells (Homo sapiens, MKN-45, MKN45, 6 days, read-out: EC50) worked out at 0.89 nM. Besides, in the experiment with MKN45 cells (Homo sapiens, MKN-45, MKN45, 6 days, read-out: Emax), the Emax is 97%.

B1: BGA7592-1F (antibody, human IgG1, V domains shown)
VH: QVQLVQSGAEVKKPGASVKVSCKASGYIFTSYWLHWVRQAPGQGLEWIGYINPQTGYTSYAQKFQGRVTMTRDTSTSTVYMELSSLRSEDTAVYYCAREYGNYNYPLDYWGQGTLVTVSS
VL: DIQMTQSPSSLSASVGDRVTITCRASENIYGYLAWYQQKPGKVPKLLIYNAKNLVEGVPSRFSGSGSGTDFTLTISSLQPEDVATYYCQHHYGTPYTFGQGTKVEIK
notes: BGA7592-1 with N54Q, N59S, S61A in VH; human IgG1 wild type / kappa format; also called BGA5366
Turning to B1, in experiment [1], binding was put at a Kd of 790 nM, the off-rate constant (koff) came to 0.0015 s⁻¹ and the kon came out at 1900 M⁻¹ s⁻¹.

B2: BGA7592-1F-ph-L (BGA3676): affinity matured clone of BGA7592-1F, "(SEQ ID NO:95)", "improved affinities to huCEA surface protein" (protein)
chain: B1 VL with I29Q, A51F, Y92L
modifications: Synthetic: BGA7592-1F-ph-L VL
In the experiment with CHIM [2], B2 gave a Ka of 6700 M⁻¹ s⁻¹ and an Rmax of 184 RU. In addition, the “affinities to huCEA surface protein” value in experiment [3] is “improved affinities”.

B3: BGA7592-1F (BGA5366): "BGA7592-1F (also described herein as BGA5366)"; humanized anti-CEA antibody, parent of the affinity matured clones (antibody, V domains shown)
VH: B1 VH
VL: B1 VL
As for B3, in the experiment with CHIM [2], the Ka turned out to be 1900 M⁻¹ s⁻¹ and the Rmax amounted to 367 RU.

B4: BGA0089 (antibody, human IgG1, V domains shown)
VH: B1 VH with S59N
VL: B1 VL with I29Q, A51T, Y92L
notes: Built on the BGA7592-1F-ph-M (BGA2433) template; human IgG1/kappa
Take B4: in experiment [4], binding was put at a Kd of 21.5 nM, the koff was 0.000394 s⁻¹ and the on-rate constant (kon) came out at 18400 M⁻¹ s⁻¹. Moreover, in the experiment with CHIM [5], the “binding activities compared to BGA7592-1F-ph-F (BGA9521)” value is reported as “improved binding activities”, the Ka was 18400 M⁻¹ s⁻¹ and the Rmax is listed as 59.4 RU.

B5: BGA2107 (antibody, human IgG1, V domains shown)
VH: B1 VH with Q54N
VL: B1 VL with I29Q, A51T, Y92L
notes: as for B4
In experiment [4], B5 registered a Kd of 19.2 nM, an off-rate constant (koff) of 0.00038 s⁻¹ and an on-rate (kon) of 19800 M⁻¹ s⁻¹. Moreover, in the experiment with CHIM [5], the “binding activities compared to BGA7592-1F-ph-F (BGA9521)” value is recorded as “improved binding activities”, the Ka is 19800 M⁻¹ s⁻¹ and the Rmax is reported as 71.1 RU.

B6: BGA8179 (antibody, human IgG1, V domains shown)
VH: B1 VH with W33Y
VL: B1 VL with I29Q, A51T, Y92L
notes: as for B4
In experiment [4], B6 registered a Kd of 14.2 nM, a koff of 0.000282 s⁻¹ and a kon of 19900 M⁻¹ s⁻¹. Also, in the experiment with CHIM [5], the “binding activities compared to BGA7592-1F-ph-F (BGA9521)” value is recorded as “improved binding activities”, the Ka stood at 19900 M⁻¹ s⁻¹ and the Rmax was 129.1 RU.

B7: BGA7592-1F-ph-L (antibody, human IgG1, V domains shown)
VH: B1 VH
VL: B1 VL with I29Q, A51F, Y92L
notes: human IgG1/kappa; also called BGA3676
In experiment [1], B7 returned a Kd of 46 nM, a koff of 0.0003 s⁻¹ and a kon of 6700 M⁻¹ s⁻¹.

B8: BGA7592-1F-ph-M (antibody, human IgG1, V domains shown)
VH: B1 VH
VL: B1 VL with I29Q, A51T, Y92L
notes: human IgG1/kappa; also called BGA2433
In experiment [4], B8 yielded a Kd of 12.6 nM, a koff of 0.000248 s⁻¹ and a kon of 19700 M⁻¹ s⁻¹. Also, in experiment [1], binding was characterised by a dissociation constant (Kd) of 99 nM, the koff was found to be 0.00025 s⁻¹ and the kon was 2500 M⁻¹ s⁻¹.
